Assay results taken from patent US8030017B2, “Thermostable luciferases and methods of production” (Promega Corporation, priority 1997, dated 2011).

What was measured:
[1] = Stability of luciferase activity in cell lysates at room temperature (with Triton X-100); type: physicochemical; conditions: over 5 hours at room temperature
Procedure: Although the luminescence activity of LucPpl within colonies of E. coli appeared to be thermostable to above 60° C., in lysates these luciferases had relatively low stability. They were particularly unstable in the presence of Triton X-100 detergent. When lysates are prepared containing the commonly used firefly luciferase, the enzyme retains greater than 90% activity over 5 hours at room temperature. In contrast, the activity of the LucPpl luciferases would decrease several fold over the same period.
The thermostability of the mutant luciferases in cell lysates was compared at room temperature (FIG. 63). Dilute lysates were buffered at pH 7.5 and contained 1% Triton X-100; typical conditions for lysates of mammalian cells.

[2] = Robotic thermostability screen of LucPpl mutants: decrease of activity over 10 hours at screening temperature; type: physicochemical; conditions: 47° C., third cycle of random mutagenesis
Procedure: “Enzyme stability” was determined by the rate of activity loss from cell lysates over 10 hours. In successive rounds of evolution the incubation temperature of the lysates was increased.
To prepare luciferases having certain performance, a method for in vitro evolution of enzyme function, as described above, was employed. Briefly described, the method is a recursive process of generating random mutations and screening for desirable properties. It was originally developed primarily to increase the thermostability of luciferases, although other enzymological characteristics are also subject to optimization by the screening criteria. A slightly different strategy was used to achieve the properties described above since two related luciferases needed to be optimized concomitantly.
The luciferases from P. plagiophthalamus have 13 cysteines, which are potentially sensitive to oxidation. This is in contrast to the commonly used firefly luciferase, which has only 4 cysteines. To remove any cysteines that may limit enzyme stability, oligonucleotide-directed mutagenesis was used to randomize the cysteine codons. Three sets of oligonucleotides were used: non-conserved cysteines in regions of low sequence homology (positions 69, 114, 160, 194, 335, and 460), non-conserved cysteines in regions of higher sequence homology (positions 127, 213, 310, and 311), and highly conserved cysteines (positions 60, 80, and 388). […]
The random mutagenesis process was repeated using the best clone from the previous cycle of mutagenesis (Luc53-0G01). […] The discrepancy in measured activity of Luc53-0G01 in this cycle of mutagenesis compared to the previous cycle may be due to changes in the assay procedure and recalibration of the incubator temperature. It should be noted that the recorded thermostabilities from each stage of mutagenesis are calculated from robotic data using abbreviated assay procedures. The data are intended to indicate the relative stabilities of enzyme mutants when assayed in the same screen, rather than providing an accurate quantitation of thermostability.

[3] = Luminescence signal intensity and signal stability in vitro of LucPpl luciferases; type: biochemical; conditions: lysate with 1% Triton X-100
Text: For luminescence assays requiring only a few second, the wild-type yellow-green-emitting luciferase produces a very stable signal (the initial rise in the signal evident in the first 2 seconds is due to the response time of the luminometer, not the kinetics of the luminescence reaction). However, the signal intensity was reduced about 30% by the presence of 1% Triton X-100 in the lysate (diluted 1:5 with the addition of assay reagent). In contrast, the luminescence intensity of the mutant luciferases was unaffected by the presence of Triton X-100. […] However, the data are not corrected for the efficiency of enzyme expression in E. coli. Thus, differences in luminescence intensity may not correlate to changes in enzyme specific activity, nor is the expression efficiency in E. coli necessarily relevant to expression in mammalian cells.
For batches of assays requiring more than an hour to process, the signal stability of the yellow-green-emitting luciferase is inadequate under the conditions tested. […] Attempts to correct this by the in vitro evolution yielded mixed results. The signal stability of all three mutant enzymes was generally much improved over the parent yellow-green enzyme for three hours after substrate addition. However, this was accompanied by a greater initial decrease in luminescence during the first half-hour. […]

colonies of E. coli = test: Luminescence of E. coli colonies expressing LucPpl luciferases at room temperature and on heating; type: cell-based; conditions: room temperature
Procedure: From colonies of E. coli expressing the luciferases, Luc81-5F01 and Luc81-6G01 produced luminescence most rapidly at room temperature upon addition of luciferin. The luminescence was more rapid and brighter than colonies expressing the wild-type green- and yellow-green-emitting luciferases. The luminescence from all the selected colonies appeared green-shifted compared to the yellow-green parent clone. […] Some of the mutant clones loose their luminescence at 65° C., but the three preferred clones remain bright above 70° C. No spectral changes upon heating the colonies were evident until above 70° C., where those clones still retaining activity began to red-shift slightly (sometime, the initial phases of enzyme denaturation are accompanied by a red shift in the luminescence). The luminescence characteristics of the three preferred mutants are quite similar.

firefly luciferase: the commonly used firefly luciferase
activity retained in lysates [1]: greater than 90%

B1: Luc81-6G01: LucPplYG mutant luciferase, SEQ ID NO:26 (protein)
chain: MMKREKNVIYGPEPLHPLEDLTAGEMLFRALRKHSHLPQALVDVVGDESLSYKEFFEATVLLAQSLHNCGYKMNDVVSICAENNTRFFIPVIAAWYIGMIVAPVNESYIPDELCKVMGISKPQIVFTTKNILNKVLEVQSRTNFIKRIIILDTVENIHGCESLPNGISRYSDGNIANFKPLHFDPVEQVAAILCSSGTTGLPKGVMQTHQNICVRLIHALDPRAGTQLIPGVTVLVYLPFFHAFGFSITLGYFMVGLRVIMFRRFDQEAFLKAIQDYEVRSVINVPSVILFLSKSPLVDKYDLSSLRELCCGAAPLAKEVAEVAAKRLNLPGIRCGFGLTESTSANIHSLRDEFKSGSLGRVTPLMAAKIADRETGKALGPNQVGELCIKGPMVSKGYVNNVEATKEAIDDDGWLHSGDFGYYDEDEHFYVVDRYKELIKYKGSQVAPAELEEILLKNPCIRDVAVVGIPDLEAGELPSAFVVKQPGKEITAKEVYDYLAERVSHTKYLRGGVRFVDSIPRNVTGKITRKELLKQLLEKAGG
modifications: Mutant luciferase
decrease of activity [2]: 100 fold | stability of luminescence signal in assays of a few seconds [3]: most stable signal | onset of luminescence in E. coli colonies upon addition of luciferin (colonies of E. coli): most rapidly
